Source: article PMC12567051, “Performing Dual Glucose Clamp Experiments in Sedated Farm Swine: A Practical Method” (Methods and Protocols, 2025)

Assay: Insulin pharmacokinetics during hyperinsulinemic-euglycemic clamp
Assay type: in vivo
Details: 24 clamps in 2 swine
Excerpt: One CSII was initiated with commercial insulin lispro (U-100, Eli Lilly and Company, Indianapolis, IN, USA) at 0.4 units/hour, and one with preservative-free saline or diluent via 2 commercial insulin pumps. This strategy was used to mimic real-world conditions and avoid potential occlusion of the catheters, while comparing occlusion rates between insulin and saline infusions. Postoperatively, the swine were monitored twice daily for signs of pain/discomfort, hypoglycemia, and infection. Glucose concentrations (trends) were also monitored using two real-time continuous glucose sensors (CGM G4 Dexcom Inc, San Diego, CA, USA) placed laterally on the lower abdomen.
Once the fasting animal was comfortably positioned in the sling apparatus, endogenous insulin secretion was suppressed using an octreotide infusion. An initial octreotide bolus dose (7.2 µg/kg) was administered 60 min prior to starting the clamp, followed by a maintenance dose of (3.6 µg/kg/h). […]
After beginning the clamp study on the first swine, a second team ensured that duplicate laboratory and anesthesia equipment were set up and calibrated in the other half of the procedure room. […] Blood glucose measurements and insulin samples were obtained at 5 and 10 min intervals for 240 min, while other data, such as vital signs and gas concentrations, were recorded continuously.

insulin lispro
time for insulin concentrations to return to near baseline (after bolus insulin 0.15 IU/kg via CSII catheter, sedated farm swine): ≤ 90 min | insulin Cmax (sedated female farm swine, bolus insulin 0.15 IU/kg via CSII catheter (subcutaneous, abdomen), endogenous insulin suppressed with octreotide, glucose clamped at 85 mg/dL, mean): 0.1085 nM
